6 sequences from the supplement of paper PMC5998384 can be followed below.

The subject of series [1] is HeLa Kyoto. The series can be described thus: melting temperature (median over replicates), in situ; higher = more thermally stable.
In series [2] the test system is HeLa Kyoto. The series can be described thus: solubility change mitosis vs G1/S (difference of NP-40 vs SDS log2 ratios) (log2 ratio difference); higher = more soluble in mitosis.
The subject of series [3] is HeLa Kyoto. The series can be described thus: solubility in G1/S (NP-40 vs SDS abundance) (log2 ratio); higher = more soluble. The following applies: cell cycle stage: G1/S.
Series [4] relates to HeLa Kyoto. The series can be described thus: thermal stability score vs G1/S (z-score of summed log2 fold changes over temperatures); higher = more thermally stable than in G1/S.
The mark [5] stands for this setting: cell cycle stage: early G1 (4.5 h after nocodazole release).
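For melting temperature (median over replicates), in situ in this document: HeLa Kyoto cells synchronized by double thymidine or nocodazole block, proteins quantified by TMT10plex mass spectrometry, three independent biological replicates.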
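For solubility change mitosis vs G1/S (difference of NP-40 vs SDS log2 ratios) in this document: synchronized HeLa Kyoto cells (double thymidine block for G1/S, nocodazole release for mitosis), protein amounts in NP-40 versus SDS lysates quantified by mass spectrometry, three biological replicates.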
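For solubility in G1/S (NP-40 vs SDS abundance) in this document: HeLa Kyoto cells arrested at G1/S by double thymidine block, proteins quantified by TMT10plex mass spectrometry in mild NP-40 versus SDS extracts, three biological replicates.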
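For thermal stability score vs G1/S (z-score of summed log2 fold changes over temperatures) in this document: synchronized HeLa Kyoto cells, proteins quantified by TMT10plex mass spectrometry, three biological replicates, mitosis taken 0.5 h after nocodazole release, G1/S directly after double thymidine block.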

Turning to “MGLQACLLGLFALILSGKCSYSPEPDQRRTLPPGWVSLGRADPEEELSLTFALRQQNVERLSELVQAVSDPSSPQYGKYLTLENVADLVRPSPLTLHTVQKWLLAAGAQKCHSVITQDFLTCWLSIRQAELLLPGAEFHHYVGGPTETHVVRSPHPYQLPQALAPHVDFVGGLHRFPPTSSLRQRPEPQVTGTVGLHLGVTPSVIRKRYNLTSQDVGSGTSNNSQACAQFLEQYFHDSDLAQFMRLFGGNFAHQASVARVVGQQGRGRAGIEASLDVQYLMSAGANISTWVYSSPGRHEGQEPFLQWLMLLSNESALPHVHTVSYGDDEDSLSSAYIQRVNTELMKAAARGLTLLFASGDSGAGCWSVSGRHQFRPTFPASSPYVTTVGGTSFQEPFLITNEIVDYISGGGFSNVFPRPSYQEEAVTKFLSSSPHLPPSSYFNASGRAYPDVAALSDGYWVVSNRVPIPWVSGTSASTPVFGGILSLINEHRILSGRPPLGFLNPRLYQQHGAGLFDVTRGCHESCLDEEVEGQGFCSGPGWDPVTGWGTPNFPALLKTLLNP [TPP1]”, the melting temperature came to 53.8 °C in series [1] (cell cycle stage: G1/S) and 53.9 °C in series [1] (cell cycle stage: mitosis). For the same sequence, in series [2], the “solubility change mitosis (log2)” value was -0.0648. Further, the “solubility in G1/S (log2)” value in series [3] came to 0.472. Further, the thermal stability score in series [4] (setting [5]) is -0.723; in series [4] (cell cycle stage: mitosis), -1.17.

Turning to “MGLTVSALFSRIFGKKQMRILMVGLDAAGKTTILYKLKLGEIVTTIPTIGFNVETVEYKNICFTVWDVGGQDKIRPLWRHYFQNTQGLIFVVDSNDRERVQESADELQKMLQEDELRDAVLLVFANKQDMPNAMPVSELTDKLGLQHLRSRTWYVQATCATQGTGLYDGLDWLSHELSKR [ARF5]”, the melting temperature is 55.4 °C in series [1] (cell cycle stage: G1/S) and 55.9 °C in series [1] (cell cycle stage: mitosis). Besides, in series [2], the “solubility change mitosis (log2)” value was -0.212. In series [3], the “solubility in G1/S (log2)” value is -0.196. In addition, the thermal stability score amounted to 1.02 in series [4] (setting [5]) and 1.14 in series [4] (cell cycle stage: mitosis).

With “MGMWASLDALWEMPAEKRIFGAVLLFSWTVYLWETFLAQRQRRIYKTTTHVPPELGQIMDSETFEKSRLYQLDKSTFSFWSGLYSETEGTLILLFGGIPYLWRLSGRFCGYAGFGPEYEITQSLVFLLLATLFSALTGLPWSLYNTFVIEEKHGFNQQTLGFFMKDAIKKFVVTQCILLPVSSLLLYIIKIGGDYFFIYAWLFTLVVSLVLVTIYADYIAPLFDKFTPLPEGKLKEEIEVMAKSIDFPLTKVYVVEGSKRSSHSNAYFYGFFKNKRIVLFDTLLEEYSVLNKDIQEDSGMEPRNEEEGNSEEIKAKVKNKKQGCKNEEVLAVLGHELGHWKLGHTVKNIIISQMNSFLCFFLFAVLIGRKELFAAFGFYDSQPTLIGLLIIFQFIFSPYNEVLSFCLTVLSRRFEFQADAFAKKLGKAKDLYSALIKLNKDNLGFPVSDWLFSMWHYSHPPLLERLQALKTMKQH [ZMPSTE24]”, the melting temperature in series [1] (cell cycle stage: G1/S) was found to be 55.2 °C; in series [1] (cell cycle stage: mitosis) it was 54.4 °C. In series [2], the “solubility change mitosis (log2)” value is -0.171. For the same sequence, the “solubility in G1/S (log2)” value in series [3] is -0.147. The thermal stability score in series [4] (setting [5]) is -0.261; in series [4] (cell cycle stage: mitosis), -0.906.

For “MGNCCWTQCFGLLRKEAGRLQRVGGGGGSKYFRTCSRGEHLTIEFENLVESDEGESPGSSHRPLTEEEIVDLRERHYDSIAEKQKDLDKKIQKELALQEEKLRLEEEALYAAQREAARAAKQRKLLEQERQRIVQQYHPSNNGEYQSSGPEDDFESCLRNMKSQYEVFRSSRLSSDATVLTPNTESSCDLMTKTKSTSGNDDSTSLDLEWEDEEGMNRMLPMRERSKTEEDILRAALKYSNKKTGSNPTSASDDSNGLEWENDFVSAEMDDNGNSEYSGFVNPVLELSDSGIRHSDTDQQTR [AP1AR]”, the melting temperature in series [1] (cell cycle stage: mitosis) is 59.6 °C. In addition, the “solubility change mitosis (log2)” value in series [2] is -0.24. Besides, the “solubility in G1/S (log2)” value in series [3] worked out at 0.104. The thermal stability score in series [4] (setting [5]) was -0.31; in series [4] (cell cycle stage: mitosis), -1.09.

Take “MGNGGRSGLQQGKGNVDGVAATPTAASASCQYRCIECNQEAKELYRDYNHGVLKITICKSCQKPVDKYIEYDPVIILINAILCKAQAYRHILFNTQINIHGKLCIFCLLCEAYLRWWQLQDSNQNTAPDDLIRYAKEWDFYRMFAIAALEQTAYFIGIFTFLWVERPMTAKKKPNFILLLKALLLSSYGKLLLIPAVIWEHDYTSVCLKLIKVFVLTSNFQAIRVTLNINRKLSFLAVLSGLLLESIMVYFFQSMEWDVGSDYAIFKSQDF [ARV1]”: in series [1] (cell cycle stage: mitosis), the melting temperature worked out at 49.2 °C. In addition, the “solubility change mitosis (log2)” value in series [2] is -0.0477. Moreover, the “solubility in G1/S (log2)” value in series [3] was -0.481. Also, the thermal stability score in series [4] (setting [5]) is -0.687; in series [4] (cell cycle stage: mitosis), -0.97.

Turning to “MGNLLKVLTCTDLEQGPNFFLDFENAQPTESEKEIYNQVNVVLKDAEGILEDLQSYRGAGHEIREAIQHPADEKLQEKAWGAVVPLVGKLKKFYEFSQRLEAALRGLLGALTSTPYSPTQHLEREQALAKQFAEILHFTLRFDELKMTNPAIQNDFSYYRRTLSRMRINNVPAEGENEVNNELANRMSLFYAEATPMLKTLSDATTKFVSENKNLPIENTTDCLSTMASVCRVMLETPEYRSRFTNEETVSFCLRVMVGVIILYDHVHPVGAFAKTSKIDMKGCIKVLKDQPPNSVEGLLNALRYTTKHLNDETTSKQIKSMLQ [FAM49B]”, the melting temperature in series [1] (cell cycle stage: G1/S) and in series [1] (cell cycle stage: mitosis) was 54.2 °C in each case. Besides, the “solubility change mitosis (log2)” value in series [2] turned out to be 0.0154. The “solubility in G1/S (log2)” value in series [3] came to 0.31. In addition, the thermal stability score was 1.27 in series [4] (setting [5]) and 0.808 in series [4] (cell cycle stage: mitosis).
